B1: SH3 and multiple ankyrin repeat domains protein 3 (Homo sapiens), Q9BYB0-1 (parent)
chain: MQLSRAAAAAAAAPAEPPEPLSPAPAPAPAPPGPLPRSAADGAPAGGKGGPGRRAESPGAPFPGASGPGPGPGAGMDGPGASAVVVRVGIPDLQQTKCLRLDPAAPVWAAKQRVLCALNHSLQDALNYGLFQPPSRGRAGKFLDEERLLQEYPPNLDTPLPYLEFRYKRRVYAQNLIDDKQFAKLHTKANLKKFMDYVQLHSTDKVARLLDKGLDPNFHDPDSGECPLSLAAQLDNATDLLKVLKNGGAHLDFRTRDGLTAVHCATRQRNAAALTTLLDLGASPDYKDSRGLTPLYHSALGGGDALCCELLLHDHAQLGITDENGWQEIHQACRFGHVQHLEHLLFYGADMGAQNASGNTALHICALYNQESCARVLLFRGANRDVRNYNSQTAFQVAIIAGNFELAEVIKTHKDSDVVPFRETPSYAKRRRLAGPSGLASPRPLQRSASDINLKGEAQPAASPGPSLRSLPHQLLLQRLQEEKDRDRDADQESNISGPLAGRAGQSKISPSGPGGPGPAPGPGPAPPAPPAPPPRGPKRKLYSAVPGRKFIAVKAHSPQGEGEIPLHRGEAVKVLSIGEGGFWEGTVKGRTGWFPADCVEEVQMRQHDTRPETREDRTKRLFRHYTVGSYDSLTSHSDYVIDDKVAVLQKRDHEGFGFVLRGAKAETPIEEFTPTPAFPALQYLESVDVEGVAWRAGLRTGDFLIEVNGVNVVKVGHKQVVALIRQGGNRLVMKVVSVTRKPEEDGARRRAPPPPKRAPSTTLTLRSKSMTAELEELASIRRRKGEKLDEMLAAAAEPTLRPDIADADSRAATVKQRPTSRRITPAEISSLFERQGLPGPEKLPGSLRKGIPRTKSVGEDEKLASLLEGRFPRSTSMQDPVREGRGIPPPPQTAPPPPPAPYYFDSGPPPAFSPPPPPGRAYDTVRSSFKPGLEARLGAGAAGLYEPGAALGPLPYPERQKRARSMIILQDSAPESGDAPRPPPAATPPERPKRRPRPPGPDSPYANLGAFSASLFAPSKPQRRKSPLVKQLQVEDAQERAALAVGSPGPGGGSFAREPSPTHRGPRPGGLDYGAGDGPGLAFGGPGPAKDRRLEERRRSTVFLSVGAIEGSAPGADLPSLQPSRSIDERLLGTGPTAGRDLLLPSPVSALKPLVSGPSLGPSGSTFIHPLTGKPLDPSSPLALALAARERALASQAPSRSPTPVHSPDADRPGPLFVDVQARDPERGSLASPAFSPRSPAWIPVPARREAEKVPREERKSPEDKKSMILSVLDTSLQRPAGLIVVHATSNGQEPSRLGGAEEERPGTPELAPAPMQSAAVAEPLPSPRAQPPGGTPADAGPGQGSSEEEPELVFAVNLPPAQLSSSDEETREELARIGLVPPPEEFANGVLLATPLAGPGPSPTTVPSPASGKPSSEPPPAPESAADSGVEEADTRSSSDPHLETTSTISTVSSMSTLSSESGELTDTHTSFADGHTFLLEKPPVPPKPKLKSPLGKGPVTFRDPLLKQSSDSELMAQQHHAASAGLASAAGPARPRYLFQRRSKLWGDPVESRGLPGPEDDKPTVISELSSRLQQLNKDTRSLGEEPVGGLGSLLDPAKKSPIAAARLFSSLGELSSISAQRSPGGPGGGASYSVRPSGRYPVARRAPSPVKPASLERVEGLGAGAGGAGRPFGLTPPTILKSSSLSIPHEPKEVRFVVRSVSARSRSPSPSPLPSPASGPGPGAPGPRRPFQQKPLQLWSKFDVGDWLESIHLGEHRDRFEDHEIEGAHLPALTKDDFVELGVTRVGHRMNIERALRQLDGS
B2: SH3 and multiple ankyrin repeat domains protein 2 (Rattus norvegicus (Rat)), Q9QX74-7 (parent)
chain: MPRSPTSSEDEMAQSFSDYSVGSESDSSKEETIYDTIRATTEKPGGVKMEDLQGNTLVIRVVIQDLQQTKCIRFNPDATVWVAKQRILCTLNQGLKDVLNYGLFQPASNGRDGKFLDEERLLREYPQPMGQGVPSLEFRYKKRVYKQSNLDEKQLARLHTKTNLKKFMDHTQHRSVEKLVKLLDRGLDPNFHDLETGETPLTLAAQLDGSMEVIKALRNGGAHLDFRSRDGMTALHKAARMRNQVALKTLLELGASPDYKDSYGLTPLYHTAIVGGDPYCCELLLHEHASVCCKDENGWHEIHQACRYGHVQHLEHLLFYGADMSAQNASGNTALHICALYNQDSCARVLLFRGGDKELKNYNSQTPFQVAIIAGNFELAEYIKNHKETDIVPFREAPAYSNRRRRPPNTLAAPRVLLRSNSDNNLNAGAPEWAVCSAATSHRSLSPQLLQQTPSKPDGATKSLGSYAPGPRSRSPSLNRLGGAGEDGKRPQPPHWHVGSPFTPGANKDSLSTFEYPGPRRKLYSAVPGRLFVAIKPYQPQVDGEIPLHRGDRVKVLSIGEGGFWEGSARGHIGWFPAECVEEVQCKPRDSQAETRADRSKKLFRHYTVGSYDSFDAASDCIIEDKTVVLQKKDNEGFGFVLRGAKADTPIEEFTPTPAFPALQYLESVDEGGVAWQAGLRTGDFLIEVNNENVVKVGHRQVVNMIRQGGNHLVLKVVTVTRNLDPDDTARKKAPPPPKRAPTTALTLRSKSMTAELEELDKPEEIVPASKPSRTAENVAIESRVATIKQRPTSRCFPAASDVNSVYERQGIAVMTPTVPGSPKGPFLGLPRGTMRRQKSIDSRIFLSGITEEERQFLAPPMLKFTRSLSMPDTSEDIPPPPQSVPPSPPPPSPTTYNCPRSPTPRVYGTIKPAFNQNPVAKVPPATRSDTVATMMREKGMFYRRELDRFSLDSEDVYSRSPAPQAAFRTKRGQMPENPYSEVGKIASKAVYVPAKPARRKGMLVKQSNVEDSPEKTCSIPIPTIIVKEPSTSSSGKSSQGSSMEIDPQATEPGQLRPDDSLTVSSPFAAAIAGAVRDREKRLEARRNSPAFLSTDLGDEDVGLGPPAPRMQPSKFPEEGGFGDEDETEQPLLPTPGAAPRELENHFLGGGEAGAQGEAGGPLSSTSKAKGPESGPAAALKSSSPASPENYVHPLTGRLLDPSSPLALALSARDRAMQESQQGHKGEAPKADLNKPLYIDTKMRPSVESGFPPVTRQNTRGPLRRQETENKYETDLSKDRRADDKKNMLINIVDTAQQKSAGLLMVHTVDIPVAGPPLEEEEDREDGDTKPDHSPSTVPEGVPKTEGALQISAAPEPAAAPGRTIVAAGSVEEAVILPFRIPPPPLASVDLDEDFLFTEPLPPPLEFANSFDIPDDRAASVPALADLVKQKKSDTPQPPSLNSSQPANSTDSKKPAGISNCLPSSFLPPPESFDAVTDSGIEEVDSRSSSDHHLETTSTISTVSSISTLSSEGGESMDTCTVYADGQAFVVDKPPVPPKPKMKPIVHKSNALYQDTLPEEDTDGFVIPPPAPPPPPGSAQAGVAKVIQPRTSKLWGDVTEVKSPILSGPKANVISELNSILQQMNRGKSVKPGEGLELPVGAKSANLAPRSPEVMSTVSGTRSTTVTFTVRPGTSQPITLQSRPPDYESRTSGPRRAPSPVVSPTELSKEILPTPPSAAAASPSPTLSDVFSLPSQSPAGDLFGLNPAGRSRSPSPSILQQPISNKPFTTKPVHLWTKPDVADWLESLNLGEHKETFMDNEIDGSHLPNLQKEDLIDLGVTRVGHRMNIERALKQLLDR

Variants of: B1
Conditions: with cac1d_human CACNA1D

Row | effect of a mutation on the interaction | Variant
1 | with no effect | K555Y

Variants of: B2
Conditions: with cac1d_rat Cacna1d

Row | effect of a mutation on the interaction | Variant
2 | with no effect | S558D
3 | decreasing interaction strength | S558N

— IntAct's records for PubMed 30058071
